Measurements published in patent US20030109431A1.
Where no end group is shown, it is not given here. The star is where a group is joined. Biotin = O=C1N[C@H]2[C@H](CS[C@H]2CCCCC(=O)*)N1

Assays:
[1] = target: specific cell surface receptor of synovial cells (unidentified), on human RA synovial fibroblasts (human); test: flow cytometry competition on synovial cells, unlabeled Fgn 2.5 mg for 3 h then labeled SAC[KBtn] 1 h; signal is of bound SAC[KBtn]
[2] = target: ICAM-1 (Intercellular Adhesion Molecule-1) (human) (UniProt P05362); test: cell-based or functional assay
[3] = target: specific cell surface receptor of synovial cells (unidentified), on human RA synovial fibroblasts (human); test: flow cytometry on RA #16 synovial fibroblasts, 100 ug peptide, avidin-FITC detection (avidin-FITC alone 13.71)
[4] = target: specific cell surface receptor of synovial cells (unidentified), on human RA synovial fibroblasts (human); test: flow cytometry on RA #16 synovial fibroblasts, 100 ug peptide, avidin-FITC detection (avidin-FITC alone 3.6 %)
[5] = target: specific cell surface receptor of synovial cells (unidentified), on human RA synovial fibroblasts (human); test: flow cytometry on RA #16 synovial fibroblasts, 200 ug peptide, avidin-FITC detection (avidin-FITC alone 13.71)
[6] = target: specific cell surface receptor of synovial cells (unidentified), on human RA synovial fibroblasts (human); test: flow cytometry on RA #16 synovial fibroblasts, 200 ug peptide, avidin-FITC detection (avidin-FITC alone 3.6 %)
[7] = target: specific cell surface receptor of synovial cells (unidentified), on human RA synovial fibroblasts (human); test: flow cytometry on synovial cells, SAC[KBtn] 1 h without competitor, avidin-FITC detection (avidin-FITC alone 20.16)
[8] = target: specific cell surface receptor of synovial cells (unidentified), on human RA synovial fibroblasts (human); test: flow cytometry competition on synovial cells, unlabeled GPRP 2.5 mg for 3 h then labeled SAC[KBtn] 1 h; signal is of bound SAC[KBtn]
[9] = target: specific cell surface receptor of synovial cells (unidentified), on human RA synovial fibroblasts (human); test: flow cytometry on RA #16 synovial fibroblasts, 100 ug control peptide, avidin-FITC detection (avidin-FITC alone 13.71)
[10] = target: specific cell surface receptor of synovial cells (unidentified), on human RA synovial fibroblasts (human); test: flow cytometry on RA #16 synovial fibroblasts, 100 ug control peptide, avidin-FITC detection (avidin-FITC alone 3.6 %)
[11] = target: specific cell surface receptor of synovial cells (unidentified), on human RA synovial fibroblasts (human); test: flow cytometry competition on synovial cells, unlabeled SAC 2.5 mg for 3 h then labeled SAC[KBtn] 1 h; signal is of bound SAC[KBtn]

ICAM-1 (Intercellular Adhesion Molecule-1) (human), sequence (P05362 28-532): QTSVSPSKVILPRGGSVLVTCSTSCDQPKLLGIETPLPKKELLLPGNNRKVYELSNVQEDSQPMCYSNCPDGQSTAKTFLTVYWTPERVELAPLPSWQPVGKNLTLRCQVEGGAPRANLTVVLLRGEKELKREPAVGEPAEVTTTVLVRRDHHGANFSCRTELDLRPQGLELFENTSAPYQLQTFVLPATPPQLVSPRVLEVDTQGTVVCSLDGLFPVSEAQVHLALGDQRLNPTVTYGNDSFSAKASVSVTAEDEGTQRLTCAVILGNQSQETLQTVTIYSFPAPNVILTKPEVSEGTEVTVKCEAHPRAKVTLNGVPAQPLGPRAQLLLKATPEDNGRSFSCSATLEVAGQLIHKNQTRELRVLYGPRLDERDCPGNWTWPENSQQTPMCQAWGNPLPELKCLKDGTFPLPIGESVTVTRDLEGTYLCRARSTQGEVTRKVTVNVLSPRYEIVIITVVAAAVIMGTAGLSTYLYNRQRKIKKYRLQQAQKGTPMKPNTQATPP

unlabeled fibrinogen (from UniProt P02671 20-629; P02675 31-491; P02679 27-437)
Mean [1]: 21.6

T-cell LFA-1 (from UniProt P20701 26-1170; P05107 23-769) (receptor)
adherent T cell numbers, Foreskin line, GPRP 0.1 mg/ml [2]: 51 T cells | adherent T cell numbers, Foreskin line, GPRP 1 mg/ml [2]: 54 T cells | adherent T cell numbers, Foreskin line, IL-1 beta 1 ng/ml [2]: 94 T cells | adherent T cell numbers, Foreskin line, control [2]: 47 T cells | adherent T cell numbers, OA line 15, GPRP 0.1 mg/ml [2]: 92 T cells | adherent T cell numbers, OA line 15, GPRP 1 mg/ml [2]: 113 T cells | adherent T cell numbers, OA line 15, IL-1 beta 1 ng/ml [2]: 66 T cells | adherent T cell numbers, OA line 15, control [2]: 35 T cells | adherent T cell numbers, RA line 7, GPRP 0.1 mg/ml [2]: 184 T cells | adherent T cell numbers, RA line 7, GPRP 1 mg/ml [2]: 153 T cells | adherent T cell numbers, RA line 7, IL-1 beta 1 ng/ml [2]: 116 T cells | adherent T cell numbers, RA line 7, control [2]: 80 T cells | adherent T cell numbers, RA line 8, GPRP 0.1 mg/ml [2]: 99 T cells | adherent T cell numbers, RA line 8, GPRP 1 mg/ml [2]: 97 T cells | adherent T cell numbers, RA line 8, IL-1 beta 1 ng/ml [2]: 58 T cells | adherent T cell numbers, RA line 8, control [2]: 29 T cells

GPRVVERHQSACK(Biotin) [biotinylated amino acid sequence 17-28 of human fibrinogen Aα chain, …[KBtn]]
Mean Fluorescent Channel [3]: 258 | % Cells Positive [4]: 86.3% | Mean Fluorescent Channel [5]: 125 | % Cells Positive [6]: 80% | Mean [7]: 51.2

H-GPRP-OH [synthetic tetrapeptide Gly-Pro-Arg-Pro]
Mean [8]: 33.6

GHRPLDKKREEK(Biotin)
Mean Fluorescent Channel [9]: 20.4 | % Cells Positive [10]: 10.6%

GPRVVERHQSAC [unlabeled …]
Mean [11]: 36.3
